What was measured:
[1] = tested on: MCM8 (FLAG-MCM8);MCM9 (MBP-MCM9) (human;human); test: EMSA; settings: EMSA: 25 mM Tris acetate pH 7.5, 3 mM EDTA (or 4 mM ATP + 1 mM Mg acetate), 1 mM DTT, 0.1 mg/ml BSA, 1 nM DNA (100 ng for plasmid-length DNA), 15 min on ice …
[2] = target: human MCM8–9 complex, wild type (FLAG-MCM8 with MBP-MCM9, co-expressed) (human) (UniProt Q9UJA3)
human MCM8–9 complex, wild type (FLAG-MCM8 with MBP-MCM9, co-expressed) (human), sequence (Q9UJA3 whole entry, chain 1 of 2): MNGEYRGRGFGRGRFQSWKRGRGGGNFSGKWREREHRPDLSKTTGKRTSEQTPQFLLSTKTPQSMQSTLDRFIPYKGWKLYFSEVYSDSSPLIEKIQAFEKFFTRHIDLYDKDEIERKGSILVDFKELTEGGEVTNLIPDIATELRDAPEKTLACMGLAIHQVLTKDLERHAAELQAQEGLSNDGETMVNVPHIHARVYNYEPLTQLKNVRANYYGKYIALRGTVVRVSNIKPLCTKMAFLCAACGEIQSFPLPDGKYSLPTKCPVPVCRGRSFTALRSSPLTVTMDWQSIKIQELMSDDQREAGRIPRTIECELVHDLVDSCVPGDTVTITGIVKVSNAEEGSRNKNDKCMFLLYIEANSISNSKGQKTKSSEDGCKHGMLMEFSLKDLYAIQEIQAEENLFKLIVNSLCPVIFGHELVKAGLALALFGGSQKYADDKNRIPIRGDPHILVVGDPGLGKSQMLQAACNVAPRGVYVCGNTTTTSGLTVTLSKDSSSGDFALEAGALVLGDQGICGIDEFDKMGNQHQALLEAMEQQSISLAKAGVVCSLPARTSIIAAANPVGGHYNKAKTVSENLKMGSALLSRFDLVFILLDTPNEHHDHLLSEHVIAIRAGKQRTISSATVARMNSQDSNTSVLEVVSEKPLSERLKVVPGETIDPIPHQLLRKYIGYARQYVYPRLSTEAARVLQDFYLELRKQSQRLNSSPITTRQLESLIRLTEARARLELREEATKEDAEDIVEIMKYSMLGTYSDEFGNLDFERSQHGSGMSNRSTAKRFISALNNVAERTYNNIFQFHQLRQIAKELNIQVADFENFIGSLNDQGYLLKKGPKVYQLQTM
human MCM8–9 complex, wild type (FLAG-MCM8 with MBP-MCM9, co-expressed) (human), sequence (Q9NXL9 whole entry, chain 2 of 2, further chain): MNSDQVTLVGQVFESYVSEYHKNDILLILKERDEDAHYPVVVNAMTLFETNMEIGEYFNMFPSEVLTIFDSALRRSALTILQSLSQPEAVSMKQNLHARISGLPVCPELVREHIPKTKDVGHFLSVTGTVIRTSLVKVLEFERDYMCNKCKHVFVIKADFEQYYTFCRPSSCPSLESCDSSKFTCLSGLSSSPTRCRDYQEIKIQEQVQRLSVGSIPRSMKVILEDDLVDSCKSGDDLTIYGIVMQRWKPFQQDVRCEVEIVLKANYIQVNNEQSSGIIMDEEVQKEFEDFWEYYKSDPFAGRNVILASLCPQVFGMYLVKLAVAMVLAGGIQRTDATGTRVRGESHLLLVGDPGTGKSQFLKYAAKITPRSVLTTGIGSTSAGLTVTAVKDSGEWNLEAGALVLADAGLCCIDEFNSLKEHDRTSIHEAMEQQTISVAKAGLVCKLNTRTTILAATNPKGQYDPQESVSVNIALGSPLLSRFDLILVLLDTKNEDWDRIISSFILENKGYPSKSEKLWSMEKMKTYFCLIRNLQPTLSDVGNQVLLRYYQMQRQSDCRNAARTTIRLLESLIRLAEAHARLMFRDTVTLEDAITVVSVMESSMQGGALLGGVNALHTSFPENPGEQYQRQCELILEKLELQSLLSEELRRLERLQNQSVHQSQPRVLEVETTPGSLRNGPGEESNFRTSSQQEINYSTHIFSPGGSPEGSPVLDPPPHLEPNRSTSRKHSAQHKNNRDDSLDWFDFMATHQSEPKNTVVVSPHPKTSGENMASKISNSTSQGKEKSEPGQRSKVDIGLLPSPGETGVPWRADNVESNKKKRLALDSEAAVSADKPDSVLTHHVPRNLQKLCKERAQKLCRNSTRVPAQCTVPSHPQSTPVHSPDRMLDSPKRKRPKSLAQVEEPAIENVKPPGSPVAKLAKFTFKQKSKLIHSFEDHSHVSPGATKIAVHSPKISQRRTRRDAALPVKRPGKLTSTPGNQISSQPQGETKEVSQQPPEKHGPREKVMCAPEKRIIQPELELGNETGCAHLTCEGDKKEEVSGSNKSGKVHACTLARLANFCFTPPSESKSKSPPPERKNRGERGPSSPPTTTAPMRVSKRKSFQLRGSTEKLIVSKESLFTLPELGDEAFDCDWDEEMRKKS

Row | ATP hydrolysis by MCM8–9 (200 nM) without or with HROB, DNA as co-factor; stimulation 1.5 to 2-fold [2] | Substance | K half [1]
1 |  | Y-structure (PC1254/PC1253) | 55 nM
2 |  | Holliday junction (PC1253/PC1254/PC1255/PC1256) | 55 nM
3 | 1.5 to 2 fold | HROB-FLAG, wild type human HROB (homologous recombination factor with OB-fold) (from UniProt Q8N3J3-4 1-646) (natural protein) | 
